Publication PMC10329719 (2023)
Primed or numbered codes have the meaning given here. Where no end group is shown, it is not given here. FITC′ = not defined here

Tests used:
Experiment in all cases: ELISA-like fluorescence binding assay
TβR3 = biological target: T1, TβR3 (Homo sapiens, UniProt Q03167)
T1 chain: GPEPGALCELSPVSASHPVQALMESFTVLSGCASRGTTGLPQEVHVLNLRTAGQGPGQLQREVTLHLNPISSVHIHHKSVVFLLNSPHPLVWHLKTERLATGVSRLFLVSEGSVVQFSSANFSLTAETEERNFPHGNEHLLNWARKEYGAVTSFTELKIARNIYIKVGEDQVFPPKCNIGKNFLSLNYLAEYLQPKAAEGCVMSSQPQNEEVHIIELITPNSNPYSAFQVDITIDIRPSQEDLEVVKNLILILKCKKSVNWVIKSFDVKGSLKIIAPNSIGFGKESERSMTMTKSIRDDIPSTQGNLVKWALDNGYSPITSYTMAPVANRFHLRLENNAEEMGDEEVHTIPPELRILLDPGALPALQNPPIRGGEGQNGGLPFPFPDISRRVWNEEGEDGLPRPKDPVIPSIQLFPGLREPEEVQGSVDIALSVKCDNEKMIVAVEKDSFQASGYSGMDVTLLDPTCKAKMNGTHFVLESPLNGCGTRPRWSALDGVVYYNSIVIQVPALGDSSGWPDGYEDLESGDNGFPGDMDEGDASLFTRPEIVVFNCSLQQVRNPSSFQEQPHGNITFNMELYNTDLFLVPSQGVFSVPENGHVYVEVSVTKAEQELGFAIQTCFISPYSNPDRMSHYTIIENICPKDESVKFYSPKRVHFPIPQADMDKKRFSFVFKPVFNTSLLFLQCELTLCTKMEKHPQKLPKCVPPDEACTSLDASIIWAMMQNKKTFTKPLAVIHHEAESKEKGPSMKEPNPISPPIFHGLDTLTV

TβR1 = biological target: T2, TβR1 (Homo sapiens, UniProt P36897)
T2 chain: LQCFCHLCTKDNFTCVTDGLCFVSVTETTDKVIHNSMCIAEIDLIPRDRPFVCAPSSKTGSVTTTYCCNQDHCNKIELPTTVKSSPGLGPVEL

TβR2 = TβR2 (Homo sapiens, UniProt P37173)
Sequence of TβR2 (P37173 23-166): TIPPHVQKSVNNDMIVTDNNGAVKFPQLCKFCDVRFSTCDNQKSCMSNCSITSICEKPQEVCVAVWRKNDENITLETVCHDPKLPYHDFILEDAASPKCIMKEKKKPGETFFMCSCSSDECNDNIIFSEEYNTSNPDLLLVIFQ

Kd (TβR3): > 34 µM
Kd (TβR1): > 34 µM
Kd (TβR2): 3.4 µM
Binder: ECGLLPVGRPDRVWRLCK-{FITC′} (cysteine pairing not given here) [PTβR2I]
